Reference: US20160264649A1

Columns and labels:
Assay in all cases: cell-based or functional assay
[1] = target: HIV-1 MGRM-C-019 Env on pseudovirus (HIV-1)
[2] = target: HIV-1 MGRM-Chronic-B-010 Env on pseudovirus (HIV-1)
[3] = target: HIV-1 MGRM-G-011 Env (HIV-1)
[4] = target: HIV-1 MGRM-AE-006 Env (HIV-1)
[5] = target: HIV-1 MGRM-AG-006 Env (HIV-1)
[6] = target: HIV-1 MGRM-G-016 Env (HIV-1)
[7] = target: HIV-1 THR0.18 (Acute) Env on pseudovirus (HIV-1)
[8] = target: HIV-1 MGRM-D-019 Env (HIV-1)
[9] = target: HIV-1 MGRM-Chronic-B-018 Env on pseudovirus (HIV-1)
[10] = target: HIV-1 MGRM-D-021 Env (HIV-1)
[11] = target: HIV-1 93IN905 Env on pseudovirus (HIV-1)
[12] = target: HIV-1 MGRM-G-014 Env (HIV-1)
[13] = target: HIV-1 MGRM-C-014 Env on pseudovirus (HIV-1)
[14] = target: HIV-1 LAVI_C22 Env on pseudovirus (HIV-1)
[15] = target: HIV-1 MGRM-F1-018 Env (HIV-1)
[16] = target: HIV-1 APV_17 Env on pseudovirus (HIV-1)
[17] = target: HIV-1 MGRM-C-012 Env on pseudovirus (HIV-1)
[18] = target: HIV-1 MGRM-AG-009 Env (HIV-1)
[19] = target: HIV-1 93IN905 Env (HIV-1)
[20] = target: HIV-1 MGRM-G-001 Env (HIV-1)
[21] = target: HIV-1 MGRM-D-012 Env (HIV-1)
[22] = target: HIV-1 98CN006 Env on pseudovirus (HIV-1)
[23] = target: HIV-1 MGRM-AE-007 Env (HIV-1)
[24] = target: HIV-1 MGRM-AE-001 Env (HIV-1)
[25] = target: HIV-1 MGRM-D-016 Env (HIV-1)
[26] = target: HIV-1 MGRM-G-028 Env (HIV-1)
[27] = target: HIV-1 MGRM-D-013 Env (HIV-1)
[28] = target: HIV-1 MGRM-D-026 Env (HIV-1)
[29] = target: HIV-1 MGRM-AE-003 Env (HIV-1)
[30] = target: aMLV envelope (negative control pseudovirus)
HIV-1 APV-13 Env (HIV-1) = target: HIV-1 APV-13 Env (HIV-1)
[31] = target: HIV-1 MGRM-G-027 Env (HIV-1)
[32] = target: HIV-1 92RW020 Env (HIV-1)
[33] = target: HIV-1 MGRM-G-015 Env (HIV-1)
[34] = target: HIV-1 MGRM-AG-008 Env (HIV-1)
[35] = target: HIV-1 MGRM-Chronic-B-011 Env on pseudovirus (HIV-1)
[36] = target: HIV-1 MGRM-G-009 Env (HIV-1)
[37] = target: HIV-1 MGRM-C-024 Env on pseudovirus (HIV-1)
[38] = target: HIV-1 MGRM-Chronic-B-012 Env on pseudovirus (HIV-1)
[39] = target: HIV-1 IAVI-C3 Env (HIV-1)
[40] = target: HIV-1 MGRM-D-011 Env (HIV-1)
[41] = target: HIV-1 MGRM-G-006 Env (HIV-1)
[42] = target: HIV-1 6535.3 (Acute) Env on pseudovirus (HIV-1)
[43] = target: HIV-1 98CN009 Env on pseudovirus (HIV-1)
[44] = target: HIV-1 MGRM-C-008 Env on pseudovirus (HIV-1)
[45] = target: HIV-1 MGRM-F1-004 Env (HIV-1)
[46] = target: HIV-1 92UG005 Env (HIV-1)
[47] = target: HIV-1 MGRM-D-024 Env (HIV-1)
[48] = target: HIV-1 MGRM-AE-005 Env (HIV-1)
[49] = target: HIV-1 MGRM-Chronic-B-001 Env on pseudovirus (HIV-1)
[50] = target: HIV-1 98IN022 Env on pseudovirus (HIV-1)
aMLV envelope = target: aMLV envelope

Which results are given for 2F5 (antibody)?
IC50 [1]: > 50 µg/mL; IC50 [2]: 0.96 µg/mL; IC50 (µg/ml), pseudovirus neutralization [3]: 1.16 µg/mL; IC50 (µg/ml), pseudovirus neutralization [4]: 0.18 µg/mL; IC50 (µg/ml), pseudovirus neutralization [5]: 0.85 µg/mL; IC50 (µg/ml), pseudovirus neutralization [6]: 16.8 µg/mL; IC50 [7]: > 50 µg/mL; IC50 (µg/ml), pseudovirus neutralization [8]: 0.14 µg/mL; IC50 [9]: 10.8 µg/mL; IC50 (µg/ml), pseudovirus neutralization [10]: > 50 µg/mL; IC50 [11]: > 50 µg/mL; IC50 (µg/ml), pseudovirus neutralization [12]: 9.65 µg/mL; IC50 [13]: > 50 µg/mL; IC50 [14]: > 50 µg/mL; IC50 (pseudovirus neutralization) [15]: 3.91 µg/mL; IC50 [16]: 4.61 µg/mL; IC50 [17]: > 50 µg/mL; IC50 (µg/ml), pseudovirus neutralization [18]: 24.8 µg/mL; neutralization IC50 [19]: > 50 µg/mL; neutralization IC90 [19]: > 50 µg/mL; IC50 (µg/ml), pseudovirus neutralization [20]: 4.1 µg/mL; IC50 (µg/ml), pseudovirus neutralization [21]: 1.7 µg/mL; IC50 [22]: > 50 µg/mL; IC50 (µg/ml), pseudovirus neutralization [23]: 0.07 µg/mL; IC50 (µg/ml), pseudovirus neutralization [24]: 0.29 µg/mL; IC50 (µg/ml), pseudovirus neutralization [25]: 9.85 µg/mL; IC50 (µg/ml), pseudovirus neutralization [26]: 2.24 µg/mL; IC50 (µg/ml), pseudovirus neutralization [27]: 2.12 µg/mL; IC50 (µg/ml), pseudovirus neutralization [28]: 4.37 µg/mL; IC50 (µg/ml), pseudovirus neutralization [29]: 0.24 µg/mL; IC50 (pseudovirus neutralization) [30]: > 50 µg/mL; neutralization IC50 (HIV-1 APV-13 Env (HIV-1)): 2.8 µg/mL; IC50 (µg/ml), pseudovirus neutralization [31]: 0.28 µg/mL; neutralization IC50 [32]: 3.37 µg/mL; neutralization IC90 [32]: 27.7 µg/mL; IC50 (µg/ml), pseudovirus neutralization [33]: 0.43 µg/mL; IC50 (µg/ml), pseudovirus neutralization [34]: 0.54 µg/mL; IC50 [35]: 0.81 µg/mL; IC50 (µg/ml), pseudovirus neutralization [36]: 7.21 µg/mL; IC50 [37]: > 50 µg/mL; IC50 [38]: 17.6 µg/mL; neutralization IC50 [39]: > 50 µg/mL; IC50 (µg/ml), pseudovirus neutralization [40]: > 50 µg/mL; IC50 (µg/ml), pseudovirus neutralization [41]: 1.33 µg/mL; IC50 [42]: 2.76 µg/mL; IC50 [43]: > 50 µg/mL; IC50 [44]: > 50 µg/mL; IC50 (pseudovirus neutralization) [45]: 4.31 µg/mL; IC50 (µg/ml), pseudovirus neutralization [46]: 8.61 µg/mL; neutralization IC50 [46]: 11.8 µg/mL; neutralization IC90 [46]: > 50 µg/mL; IC50 (µg/ml), pseudovirus neutralization [47]: > 50 µg/mL; IC50 (µg/ml), pseudovirus neutralization [48]: 0.14 µg/mL; IC50 [49]: 0.55 µg/mL; IC50 [50]: > 50 µg/mL; neutralization IC50 (aMLV envelope): > 50 µg/mL; neutralization IC90 (aMLV envelope): > 50 µg/mL
